From article PMC11931385, “Structural and functional analysis of cancer-associated missense variants in the retinoblastoma protein pocket domain” (The Journal of Biological Chemistry, 2025)
Changes are numbered by the printed parent chain. Names may count otherwise. No end group written: not given here. TMR = tetramethyl rhodamine dye

B1: TMR-E2F1^TD, peptide of the E2F1 transactivation domain (peptide)
peptide: {TMR}-GEGIRDLFDCDFGDLTPLD
notes: also called E2F^TD; source: synthetic peptide, bought: GenScript
B2: TMR-E7^LxCxE, LxCxE peptide of the E7 oncoprotein from HPV (peptide)
peptide: DLYCYEQLN
modifications: also: TMR label, position not given here
notes: source: synthetic peptide, bought: GenScript

Columns and labels:
Assay in all cases: fluorescence polarisation; 37 °C, after the 25 °C reading ramped over 7 min to 37 °C and 2 min incubation; unlabeled Rb^P against 1.5 nM TMR-E2F1^TD or 7.5 nM TMR-E7^LxCxE; 25 mM Tris pH 8.0, 200 mM NaCl, 1 mM DTT, 0.1% Tween-20; apparent Kd
Details in all cases: both partners purified
[1] = target: T1, Rb^P T620M (human, UniProt P06400 380-788, T620M)
T1 construct: also called variant 40
T1 sequence (looked up): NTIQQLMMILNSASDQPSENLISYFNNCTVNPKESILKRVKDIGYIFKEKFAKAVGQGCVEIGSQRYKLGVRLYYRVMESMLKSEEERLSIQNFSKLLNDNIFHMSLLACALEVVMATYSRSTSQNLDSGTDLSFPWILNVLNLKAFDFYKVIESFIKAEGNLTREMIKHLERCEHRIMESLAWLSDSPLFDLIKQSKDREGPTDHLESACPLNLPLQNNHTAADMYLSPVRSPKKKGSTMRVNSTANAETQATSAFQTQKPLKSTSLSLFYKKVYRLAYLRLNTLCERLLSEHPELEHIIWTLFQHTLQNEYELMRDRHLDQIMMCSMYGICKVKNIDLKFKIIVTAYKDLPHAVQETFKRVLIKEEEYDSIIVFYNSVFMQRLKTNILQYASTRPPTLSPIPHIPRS

[2] = target: T2, Rb^P T638S (human, UniProt P06400 380-788, T638S)
T2 construct: also called variant 45
T2 sequence (looked up): T1 sequence (looked up) with M241T, T259S

[3] = target: T3, Rb^P I679F (human, UniProt P06400 380-788, I679F)
T3 construct: also called variant 57
T3 sequence (looked up): T1 sequence (looked up) with M241T, I300F

[4] = target: T4, Rb^P L550I (human, UniProt P06400 380-788, L550I)
T4 construct: also called variant 27
T4 sequence (looked up): T1 sequence (looked up) with L171I, M241T

[5] = target: T5, Rb^P T738I (human, UniProt P06400 380-788, T738I)
T5 construct: also called variant 67
T5 sequence (looked up): T1 sequence (looked up) with M241T, T359I

Row | Binder | Kd [1] | Kd [2] | Kd [3] | Kd [4] | Kd [5]
1 | B1 | 59 nM | 38 nM | 33 nM | 80 nM | 179 nM
2 | B2 | 15 nM | 14 nM | 20 nM | 7 nM | 151 nM
